In the RNAGym collection of RNA variant scans (doi:10.1021/acssynbio.7b00057):

B1: Pistol ribozyme (parent)
chain: GGGUCGUUGUUCCAUAAUCGCGUGGAUAUGGCACGCAAGUUUCUACCGGGCACCGUAAAUGUCCGACUGGAGCCGUUCGGGCGGCUAUAAACAGACCUCAGGCCCGAAGCGUGGCGGCACCUGCCGCCGGUGGUAAAAAAGAUCGGAAGAGCACACGUCU

Variants of: B1
Experiment: aptazyme ON/OFF ratio, guanine; higher = stronger switching; co-transcriptional cleavage with and without guanine

Variant	aptazyme ON/OFF ratio
GGGUCGGCUGAAUAUAAUCGCGUGGAUAUGGCACGCAAGUUUCUACCGGGCACCGUAAAUGUCCGACUGGAGCCGUUCGGGCGGCUAUAAACAGACCUCAGGCCCGAAGCGUGGCGGCACCUGCCGCCGGUGGUAAAAAAGAUCGGAAGAGCACACGUCU [U7G U8C G9U U10G U11A C12A C13U]	1.38
GGGUCGCGAAGAAAUAAUCGCGUGGAUAUGGCACGCAAGUUUCUACCGGGCACCGUAAAUGUCCGACUGGAGCCGUUCGGGCGGCUAUAAACAGACCUCAGGCCCGAAGCGUGGCGGCACCUGCCGCCGGUGGUAAAAAAGAUCGGAAGAGCACACGUCU [U7C U8G G9A U10A U11G C12A C13A]	1.13
GGGUCGGAUCGCGAUAAUCGCGUGGAUAUGGCACGCAAGUUUCUACCGGGCACCGUAAAUGUCCGACUGGAGCCGUUCGGGCGGCUAUAAACAGACCUCAGGCCCGAAGCGUGGCGGCACCUGCCGCCGGUGGUAAAAAAGAUCGGAAGAGCACACGUCU [U7G U8A G9U U10C U11G C13G]	1.09
GGGUCGGGAGUCCAUAAUCGCGUGGAUAUGGCACGCAAGUUUCUACCGGGCACCGUAAAUGUCCGACUGGAGCCGUUCGGGCGGCUAUAAACAGACCUCAGGCCCGAAGCGUGGCGGCACCUGCCGCCGGUGGUAAAAAAGAUCGGAAGAGCACACGUCU [U7G U8G G9A U10G]	1.83
GGGUCGACUGAUCAUAAUCGCGUGGAUAUGGCACGCAAGUUUCUACCGGGCACCGUAAAUGUCCGACUGGAGCCGUUCGGGCGGCUAUAAACAGACCUCAGGCCCGAAGCGUGGCGGCACCUGCCGCCGGUGGUAAAAAAGAUCGGAAGAGCACACGUCU [U7A U8C G9U U10G U11A C12U]	1
GGGUCGCAGUAACAUAAUCGCGUGGAUAUGGCACGCAAGUUUCUACCGGGCACCGUAAAUGUCCGACUGGAGCCGUUCGGGCGGCUAUAAACAGACCUCAGGCCCGAAGCGUGGCGGCACCUGCCGCCGGUGGUAAAAAAGAUCGGAAGAGCACACGUCU [U7C U8A U11A C12A]	1.28
GGGUCGCCGAGAAAUAAUCGCGUGGAUAUGGCACGCAAGUUUCUACCGGGCACCGUAAAUGUCCGACUGGAGCCGUUCGGGCGGCUAUAAACAGACCUCAGGCCCGAAGCGUGGCGGCACCUGCCGCCGGUGGUAAAAAAGAUCGGAAGAGCACACGUCU [U7C U8C U10A U11G C12A C13A]	1.06
GGGUCGUAUACUCAUAAUCGCGUGGAUAUGGCACGCAAGUUUCUACCGGGCACCGUAAAUGUCCGACUGGAGCCGUUCGGGCGGCUAUAAACAGACCUCAGGCCCGAAGCGUGGCGGCACCUGCCGCCGGUGGUAAAAAAGAUCGGAAGAGCACACGUCU [U8A G9U U10A U11C C12U]	1.11
GGGUCGAGUUAACAUAAUCGCGUGGAUAUGGCACGCAAGUUUCUACCGGGCACCGUAAAUGUCCGACUGGAGCCGUUCGGGCGGCUAUAAACAGACCUCAGGCCCGAAGCGUGGCGGCACCUGCCGCCGGUGGUAAAAAAGAUCGGAAGAGCACACGUCU [U7A U8G G9U U11A C12A]	1.59
GGGUCGUCCGUAAAUAAUCGCGUGGAUAUGGCACGCAAGUUUCUACCGGGCACCGUAAAUGUCCGACUGGAGCCGUUCGGGCGGCUAUAAACAGACCUCAGGCCCGAAGCGUGGCGGCACCUGCCGCCGGUGGUAAAAAAGAUCGGAAGAGCACACGUCU [U8C G9C U10G C12A C13A]	1.13
GGGUCGGCCUACAAUAAUCGCGUGGAUAUGGCACGCAAGUUUCUACCGGGCACCGUAAAUGUCCGACUGGAGCCGUUCGGGCGGCUAUAAACAGACCUCAGGCCCGAAGCGUGGCGGCACCUGCCGCCGGUGGUAAAAAAGAUCGGAAGAGCACACGUCU [U7G U8C G9C U11A C13A]	1.09
GGGUCGGACGACAAUAAUCGCGUGGAUAUGGCACGCAAGUUUCUACCGGGCACCGUAAAUGUCCGACUGGAGCCGUUCGGGCGGCUAUAAACAGACCUCAGGCCCGAAGCGUGGCGGCACCUGCCGCCGGUGGUAAAAAAGAUCGGAAGAGCACACGUCU [U7G U8A G9C U10G U11A C13A]	1.05
GGGUCGGGCAGUUAUAAUCGCGUGGAUAUGGCACGCAAGUUUCUACCGGGCACCGUAAAUGUCCGACUGGAGCCGUUCGGGCGGCUAUAAACAGACCUCAGGCCCGAAGCGUGGCGGCACCUGCCGCCGGUGGUAAAAAAGAUCGGAAGAGCACACGUCU [U7G U8G G9C U10A U11G C12U C13U]	1.05
GGGUCGCACUAAUAUAAUCGCGUGGAUAUGGCACGCAAGUUUCUACCGGGCACCGUAAAUGUCCGACUGGAGCCGUUCGGGCGGCUAUAAACAGACCUCAGGCCCGAAGCGUGGCGGCACCUGCCGCCGGUGGUAAAAAAGAUCGGAAGAGCACACGUCU [U7C U8A G9C U11A C12A C13U]	1.15
GGGUCGUUCGCACAUAAUCGCGUGGAUAUGGCACGCAAGUUUCUACCGGGCACCGUAAAUGUCCGACUGGAGCCGUUCGGGCGGCUAUAAACAGACCUCAGGCCCGAAGCGUGGCGGCACCUGCCGCCGGUGGUAAAAAAGAUCGGAAGAGCACACGUCU [G9C U10G U11C C12A]	1.37
GGGUCGUGGCGCAAUAAUCGCGUGGAUAUGGCACGCAAGUUUCUACCGGGCACCGUAAAUGUCCGACUGGAGCCGUUCGGGCGGCUAUAAACAGACCUCAGGCCCGAAGCGUGGCGGCACCUGCCGCCGGUGGUAAAAAAGAUCGGAAGAGCACACGUCU [U8G U10C U11G C13A]	1.07
GGGUCGAUAACUAAUAAUCGCGUGGAUAUGGCACGCAAGUUUCUACCGGGCACCGUAAAUGUCCGACUGGAGCCGUUCGGGCGGCUAUAAACAGACCUCAGGCCCGAAGCGUGGCGGCACCUGCCGCCGGUGGUAAAAAAGAUCGGAAGAGCACACGUCU [U7A G9A U10A U11C C12U C13A]	1.13
GGGUCGCUGUUUAAUAAUCGCGUGGAUAUGGCACGCAAGUUUCUACCGGGCACCGUAAAUGUCCGACUGGAGCCGUUCGGGCGGCUAUAAACAGACCUCAGGCCCGAAGCGUGGCGGCACCUGCCGCCGGUGGUAAAAAAGAUCGGAAGAGCACACGUCU [U7C C12U C13A]	1.55
